The source of these data is publication PMC5610175, “The Kinetochore Receptor for the Cohesin Loading Complex” (Cell, 2017).

Non-standard residues stand in square brackets, D forms with d. No end group written: not given here. pT = C[C@@H](OP(=O)(O)O)[C@H](N)C(=O)O; pS = N[C@@H](COP(=O)(O)O)C(=O)O

The target in one experiment is T1, Scc2^1-181-Scc4 (WT) (Saccharomyces cerevisiae, UniProt P40090+Q04002).
T1 construct: made in house; host or cells: bacteria (E. coli is stated only for the Ctf19 complex proteins)
T1 sequence (P40090 1-624): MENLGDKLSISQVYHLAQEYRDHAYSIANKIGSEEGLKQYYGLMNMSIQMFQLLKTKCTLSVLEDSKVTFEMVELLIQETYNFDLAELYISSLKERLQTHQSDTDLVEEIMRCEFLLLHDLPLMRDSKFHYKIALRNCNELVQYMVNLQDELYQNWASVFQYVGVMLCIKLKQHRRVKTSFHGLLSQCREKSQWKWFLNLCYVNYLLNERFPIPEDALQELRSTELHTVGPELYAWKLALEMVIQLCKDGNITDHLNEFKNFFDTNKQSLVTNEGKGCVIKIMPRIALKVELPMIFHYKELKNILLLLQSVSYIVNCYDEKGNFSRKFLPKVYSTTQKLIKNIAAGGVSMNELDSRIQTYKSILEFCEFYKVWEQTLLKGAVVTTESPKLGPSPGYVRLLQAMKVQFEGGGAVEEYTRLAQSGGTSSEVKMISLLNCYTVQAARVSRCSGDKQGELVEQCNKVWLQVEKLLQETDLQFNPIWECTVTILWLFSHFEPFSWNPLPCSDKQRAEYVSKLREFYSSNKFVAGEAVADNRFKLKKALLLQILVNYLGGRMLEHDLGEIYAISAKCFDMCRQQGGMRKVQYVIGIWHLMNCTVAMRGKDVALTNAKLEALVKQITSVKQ
T1 sequence (Q04002 1-181 partner limits assumed): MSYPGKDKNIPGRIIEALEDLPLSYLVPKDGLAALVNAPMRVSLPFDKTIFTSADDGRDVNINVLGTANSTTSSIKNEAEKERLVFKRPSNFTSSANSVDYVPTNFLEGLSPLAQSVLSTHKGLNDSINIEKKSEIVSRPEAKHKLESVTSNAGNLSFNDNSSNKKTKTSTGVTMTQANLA
In words: Peptide binding to Scc2^1-181-Scc4 WT by biolayer interferometry. Conditions: Scc2^1–181-Scc4 WT. Set-up: species or system budding yeast. The procedure: Figure S5 Synthetic Ctf19^1–11 binds Scc2^1–181-Scc4, and Binding Requires Phosphorylation of Ctf19 Residue T4 or S5, Related to Figure 6 Experiments were carried out as in Figure 6B (error bars – +/−SD for three independent experiments, obscured by data points where not visible). m3 refers to immobilized Scc2^1-181-Scc4^m3. Ctf19 peptides and Scc2^1-181-Scc4 complexes used are listed in the table along with measured dissociation constants (Kd; SE – standard error for best-fit binding curve; single site, specific binding; Phos. – phosphorylated residues). TEXT PRINTED IN THE PICTURE: Ctf19 residues 1-11; Phos. none: Kd(±SE)(μM): n.d. (Scc2^1-181-Scc4: WT) | Ctf19 residues 1-11; Phos. pT4: Kd(±SE)(μM): 1757(6000+) (Scc2^1-181-Scc4: WT) | Ctf19 residues 1-11; Phos. pS5: Kd(±SE)(μM): 122(66) (Scc2^1-181-Scc4: WT); Kd(±SE)(μM): n.d. (Scc2^1-181-Scc4: m3) | Ctf19 residues 1-6; Phos. pT4;pS5: Kd(±SE)(μM): 22.6(3.0) (Scc2^1-181-Scc4: WT)
We used biolayer interferometry (ForteBio) to quantify the interaction between Scc2^1-181–Scc4 and synthetic peptides derived from the N-terminal region of Ctf19 (Tufts University Core Facility, Boston). For all steps, we used octet buffer (40mM HEPES, pH 7.5; 200mM NaCl; 1mM DTT) and low-volume 96-well opaque black plates. […] This step was allowed to reach saturation before a final incubation in octet buffer.
To derive binding curves, we first applied a linear correction so that all association steps began at zero response units. We then performed a linear drift correction by subtracting the signal for Scc2^1-181-Scc4 incubated in buffer alone during the association step (no peptide, linear subtraction for each time point, independent control for each experiment). We then applied a loading factor to correct for the Scc2^1-181-Scc4 immobilization efficiency for each well. From these normalized association curves, we extracted maximum responses for each well by averaging the signal across the final ten seconds of the association step. We performed these operations for three independent experiments, performed with new tips and samples, for each data point. […] Data points represent mean maximum responses, and error bars show the standard deviation for the three experiments. Fits were determined using GraphPad Prism software assuming a single specific binding site.

Experiment [1] deals with T2, Scc2^1–181-Scc4 complex, wild type, tagged (6His-FLAG-Scc2 1-181; 6His-Scc4) (S. cerevisiae, UniProt Q04002 1-181; P40090 1-624).
T2 chain 1: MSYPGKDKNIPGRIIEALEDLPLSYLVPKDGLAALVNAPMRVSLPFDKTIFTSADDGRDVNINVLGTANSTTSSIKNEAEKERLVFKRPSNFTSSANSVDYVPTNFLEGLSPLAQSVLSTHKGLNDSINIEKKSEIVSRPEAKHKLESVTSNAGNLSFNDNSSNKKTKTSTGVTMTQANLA
T2 chain 2: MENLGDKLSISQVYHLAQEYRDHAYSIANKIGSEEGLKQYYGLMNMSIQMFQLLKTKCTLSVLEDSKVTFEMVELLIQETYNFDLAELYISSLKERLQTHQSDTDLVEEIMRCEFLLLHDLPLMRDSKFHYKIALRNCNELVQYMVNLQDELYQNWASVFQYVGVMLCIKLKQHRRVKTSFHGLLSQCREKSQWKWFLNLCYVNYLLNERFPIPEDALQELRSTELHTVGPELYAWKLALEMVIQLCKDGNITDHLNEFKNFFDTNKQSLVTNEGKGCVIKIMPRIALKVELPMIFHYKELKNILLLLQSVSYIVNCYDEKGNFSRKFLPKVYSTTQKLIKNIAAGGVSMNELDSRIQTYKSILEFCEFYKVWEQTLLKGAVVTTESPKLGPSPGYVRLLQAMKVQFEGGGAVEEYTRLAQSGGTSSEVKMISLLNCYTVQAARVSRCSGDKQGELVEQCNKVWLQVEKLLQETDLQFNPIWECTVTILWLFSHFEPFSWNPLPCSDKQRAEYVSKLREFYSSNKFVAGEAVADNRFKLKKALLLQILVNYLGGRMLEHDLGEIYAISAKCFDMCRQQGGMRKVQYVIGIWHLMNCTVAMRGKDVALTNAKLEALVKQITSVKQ
In words: BLI; phosphorylated S5.

Experiment [2] has as its target T2, Scc2^1–181-Scc4 complex, wild type, …. The experiment can be described thus: BLI; phosphorylated T4; SE 6000+.
Experiment [3] concerns the target T3, Scc4, as in the crystallised Scc2^1–181-Scc4 complex (S. cerevisiae, UniProt P40090 1-624).
T3 construct: Scc4, budding yeast cohesin loader subunit; Single chain of m8, for the pairs within the structure; not shown: 6His, N-terminal, cleaved
T3 sequence: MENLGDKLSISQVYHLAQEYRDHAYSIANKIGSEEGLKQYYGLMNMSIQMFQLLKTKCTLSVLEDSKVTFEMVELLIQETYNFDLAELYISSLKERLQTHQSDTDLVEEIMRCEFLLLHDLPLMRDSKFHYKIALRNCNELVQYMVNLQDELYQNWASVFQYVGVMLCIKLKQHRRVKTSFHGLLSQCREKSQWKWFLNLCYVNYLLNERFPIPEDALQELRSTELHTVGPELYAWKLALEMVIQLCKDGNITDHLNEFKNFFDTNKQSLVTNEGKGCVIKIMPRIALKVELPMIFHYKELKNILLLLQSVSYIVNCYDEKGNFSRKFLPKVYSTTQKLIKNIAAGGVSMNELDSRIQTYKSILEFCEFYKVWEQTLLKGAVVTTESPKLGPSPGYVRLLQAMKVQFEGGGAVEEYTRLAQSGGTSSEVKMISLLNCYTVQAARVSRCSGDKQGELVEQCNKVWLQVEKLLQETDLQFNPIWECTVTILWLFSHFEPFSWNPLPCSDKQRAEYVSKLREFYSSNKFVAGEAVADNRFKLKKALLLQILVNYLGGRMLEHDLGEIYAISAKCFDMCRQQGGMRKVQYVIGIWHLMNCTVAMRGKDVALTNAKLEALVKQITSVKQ
The experiment can be described thus: crystal structure; TEV-cleaved Scc2 1-181-Scc4 mixed with Ctf19 1-6 diphosphorylated peptide at 1:1.8; 8% PEG 4,000, 80mM PIPES pH 6, 18°C; space group P6_2, 3.19Å. The note with it: both partners purified.

Experiment [4] addresses T4, Scc2^1–181-Scc4 complex, wild type, tagged (6His-FLAG-Scc2 1-181; 6His-Scc4) (S. cerevisiae, UniProt Q04002 1-181; P40090 1-624).
T4 construct: Scc4, budding yeast cohesin loader subunit; source: recombinant, expressed in bacteria, purified; not shown: 6His, N-terminal, kept; FLAG, N-terminal, kept
T4 sequence 1: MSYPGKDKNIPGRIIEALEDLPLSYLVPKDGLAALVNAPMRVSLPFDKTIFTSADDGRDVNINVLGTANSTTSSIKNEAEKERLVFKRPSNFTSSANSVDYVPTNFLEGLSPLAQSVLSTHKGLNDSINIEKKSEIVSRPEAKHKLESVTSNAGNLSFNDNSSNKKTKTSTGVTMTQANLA
T4 sequence 2: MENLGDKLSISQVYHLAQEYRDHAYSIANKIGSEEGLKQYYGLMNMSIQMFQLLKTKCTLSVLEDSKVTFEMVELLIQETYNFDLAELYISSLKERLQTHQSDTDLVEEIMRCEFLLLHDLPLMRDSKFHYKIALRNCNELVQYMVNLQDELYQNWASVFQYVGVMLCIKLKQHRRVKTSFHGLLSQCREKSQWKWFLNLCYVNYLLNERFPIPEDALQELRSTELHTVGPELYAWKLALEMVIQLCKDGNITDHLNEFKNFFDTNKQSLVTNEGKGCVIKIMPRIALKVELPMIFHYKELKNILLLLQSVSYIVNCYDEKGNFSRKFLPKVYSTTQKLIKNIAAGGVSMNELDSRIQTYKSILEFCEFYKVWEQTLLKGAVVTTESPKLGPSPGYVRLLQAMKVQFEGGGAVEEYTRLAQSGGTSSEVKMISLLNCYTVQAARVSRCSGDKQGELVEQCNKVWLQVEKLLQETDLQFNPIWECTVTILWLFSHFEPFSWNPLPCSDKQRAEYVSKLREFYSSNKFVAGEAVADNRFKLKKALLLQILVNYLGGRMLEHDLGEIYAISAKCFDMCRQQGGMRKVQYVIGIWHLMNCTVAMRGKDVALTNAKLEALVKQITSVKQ
In words: BLI; ForteBio; 6His-tagged Scc2 1-181-Scc4 captured on NiNTA tips, Ctf19 peptides in solution at varying concentrations; 40mM HEPES pH 7.5, 200mM NaCl, 1mM DTT; steady-state responses, single specific site fit (Prism); three independent experiments. The note with it: both partners purified.

Take “MDFTSDTTNSH [Ctf19 residues 1-11; Phos. none, unmodified synthetic Ctf19^1–11 peptide]”: the “binding to Scc2^1–181-Scc4 in vitro (in words)” value at Scc2^1-181-Scc4 (WT) (pH 7.5, listed as unmodified Ctf19^1–11) is listed as “did not interact with Scc2^1–181-Scc4”; on Scc2^1-181-Scc4 (WT) (pH 7.5, listed as unphosphorylated peptide), “did not”.

Molecule MDFT[pS]DTTNSH [Synthetic Ctf19^1–11 peptide phosphorylated at S5 (MDFTpSDTTNSH)] yielded a Kd in experiment [1] of 122 µM. MDF[pT]SDTTNSH [Synthetic Ctf19^1–11 peptide phosphorylated at T4 (MDFpTSDTTNSH)] gave a Kd in experiment [2] of 1760 µM.

B1: Scc2^1–181, as in the crystallised Scc2^1–181-Scc4 complex (domain or fragment, S. cerevisiae, UniProt Q04002 1-181, looked up)
chain: MSYPGKDKNIPGRIIEALEDLPLSYLVPKDGLAALVNAPMRVSLPFDKTIFTSADDGRDVNINVLGTANSTTSSIKNEAEKERLVFKRPSNFTSSANSVDYVPTNFLEGLSPLAQSVLSTHKGLNDSINIEKKSEIVSRPEAKHKLESVTSNAGNLSFNDNSSNKKTKTSTGVTMTQANLA
notes: Single chain of m8, for the pairs within the structure; also called Scc2n; source: recombinant, purified with Scc4, tags cleaved with TEV protease; not shown: 6His, N-terminal, cleaved
Consider B1, for which the binding result in experiment [3] is “binds”.

B2: Synthetic Ctf19^1–6 peptide phosphorylated at T4 and S5 (MDFpTpSD) (peptide)
peptide: MDF[pT][pS]D
notes: Ctf19 residues 1-6, budding yeast; also called phosphorylated Ctf19^1–6; Ctf19^1-6 diphosphorylated peptide; source: synthetic peptide (Tufts Univ. Core Facility)
In turn, B2 had a Kd in experiment [4] of about 23 µM.
